Test results published in paper PMC4549619, “Engineering catechol 1, 2-dioxygenase by design for improving the performance of the cis, cis-muconic acid synthetic pathway in Escherichia coli” (Scientific Reports, 2015).

Key:
Oc1ccccc1O = experiment: initial rates, OD260 product formation, Michaelis-Menten nonlinear fit; assay type: biochemical, Acinetobacter baylyi; settings: 100 mM potassium phosphate pH 7.4, 25 °C, catechol 0-200 μM
Description: (§1) initial rates, OD260 product formation, Michaelis-Menten nonlinear fit on catechol 1,2-dioxygenase (CatA)

[1] = substrate: Oc1ccccc1O; experiment: as above; assay type: biochemical, Acinetobacter baylyi; settings: 100 mM potassium phosphate pH 7.4, 25 °C, catechol 0-200 μM; remark: listed apart in the source
Description: as §1

Which Km (Oc1ccccc1O) does the source give for “catechol 1,2-dioxygenase (CatA) (Acinetobacter baylyi ADP1; L73F/P76A)” here?
Its Km is 45.96 ± 7.691 µM.

And the kcat (Oc1ccccc1O)?
The kcat was 39.5 ± 0.221 s⁻¹.

How did the Km (Oc1ccccc1O) turn out when “catechol 1,2-dioxygenase (CatA) (Acinetobacter baylyi ADP1; P76A)” was run?
Its Km is 65.91 ± 7.753 µM.

And the kcat (Oc1ccccc1O)?
Its kcat is 46.56 ± 0.201 s⁻¹.

With “catechol 1,2-dioxygenase (CatA) (Acinetobacter baylyi ADP1; L73F)” as the molecule, how does the Km (Oc1ccccc1O) read?
The Km was 151.09 ± 10.299 µM.

What about the kcat (Oc1ccccc1O) of the same molecule?
The kcat was 5.65 ± 0.163 s⁻¹.

B1: catechol 1,2-dioxygenase (CatA) (Acinetobacter baylyi ADP1) (protein)
chain: MEVKIFNTQDVQDFLRVASGLEQEGGNPRVKQIIHRVLSDLYKAIEDLNITSDEYWAGVAYLNQLGANQEAGLLSPGLGFDHYLDMRMDAEDAALGIENATPRTIEGPLYVAGAPESVGYARMDDGSDPNGHTLILHGTIFDADGKPLPNAKVEIWHANTKGFYSHFDPTGEQQAFNMRRSIITDENGQYRVRTILPAGYGCPPEGPTQQLLNQLGRHGNRPAHIHYFVSADGHRKLTTQINVAGDPYTYDDFAYATREGLVVDAVEHTDPEAIKANDVEGPFAEMVFDLKLTRLVDGVDNQVVDRPRLAV
Which Km [1] does the source give for B1 here?
The Km was 7.88 ± 1.239 µM.

And the kcat [1]?
Its kcat is 7.86 ± 0.248 s⁻¹.
